Test results as given in article PMC10999750, “Structural basis for nuclear import of bat adeno-associated virus capsid protein” (The Journal of General Virology, 2024).
Where no end group is shown, it is not given here. The star is where a group is joined. FITC = O=C1OC2(c3ccc(O)cc3Oc3cc(O)ccc32)c2ccc(NC(=S)*)cc21; Ahx = NCCCCCC(=O)O

Legend:
[1] = target: T1, Mouse importin α2 lacking the IBB domain (mImpα2DIBB) (mouse, UniProt P52293 70-529); assay: crystal structure; co-purified complex of AAV 09YN Cap-BR and IMPα2; hanging drop, 0.75 M Na citrate, 0.1 M HEPES pH 7.5, 22 °C; 2.4 Å; conditions: both partners purified
[2] = target: T1, Mouse importin α2 lacking the IBB …; assay: fluorescence polarisation; FITC-tagged peptide ('2 nm' [sic]) with importin two-fold serially diluted from 4.5 µM across 23 wells, 200 µl, GST Buffer A (50 mM Tris, 125 mM NaCl); three independent experiments; conditions: both partners purified

Binder	binding result [1]	Kd [2]
AAV 09YN Cap-BR (N-terminal domain fragment of AAV 09YN VP1 encompassing basic regions 1-3, residues 112-169) (domain or fragment, not shown: GST, N-terminal, cleaved) ANALFQAKKRVLEPFGLVEGEPEPKKTPSVKRPHASPDSSSGVGKKGDQPARKRLDFG	binds	–
Synthetic FITC labelled AAV 09YN Cap-BR peptide (residues 117-167) (also called FITC-tagged AAV 09YN Cap-BR peptide; non-mutated 09YN Cap-BR; source: synthetic peptide (GenScript)) peptide: {FITC-Ahx}-QAKKRVLEPFGLVEGEPEPKKTPSVKRPHASPDSSSGVGKKGDQPARKRLD	–	656 nM
